Test results reported in patent US20150037333A1.

Molecular target: canine TNF-alpha (canine) (UniProt P51742)
Experiment: cell-based or functional assay

canine TNF-alpha (canine), sequence (P51742 77-233 limits assumed): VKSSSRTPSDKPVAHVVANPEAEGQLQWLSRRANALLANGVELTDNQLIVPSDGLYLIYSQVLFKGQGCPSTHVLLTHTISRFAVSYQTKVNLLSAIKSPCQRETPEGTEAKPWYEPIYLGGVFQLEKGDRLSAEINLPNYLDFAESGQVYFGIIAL

inhibition of canine TNF-alpha bioactivity (1 ng/ml) in 293-HEK cells with NF-kB-EGFP reporter construct pTRH1; IC50: 1 ng/ml
Substance: human TNFR-canine HCB control fusion protein (human TNFR extracellular domain fused N-terminally to canine HCB hinge-CH2-CH3) (Fc fusion)
